{"source": "paper PMC2018723", "molecular_target": "viral nucleoprotein complex (HIV-1) (HIV-1 (pNL4-3))", "assay": "co-sedimentation; concentrated vif-defective HIV-1 virions from transfected HeLa cells loaded on a 20%/60% sucrose step gradient overlaid with 100 ul of 1% Triton X-100 (results: 0.1% Triton X-100) or PBS; SW55Ti, 60 min, 35,000 rpm, 4°C; fractions S1-S3 immunoblotted for APOBEC, CA, NC, MA"}
{"substance": "APOBEC3G (from UniProt Q9HC16 1-384) (enzyme)", "values": [{"measurement": "percent of virus-associated A3G copurifying with viral NPCs", "result": "> 70", "unit": "%"}]}
